Laboratory results as given in the supplement of paper PMC10567573.

B1: KLHDC10 (parent)
chain: FGGTGIPFGESNGNGVHVCNVKYK

Variants of: B1
Test: protein stability index of a GFP-peptide fusion (GPS, HEK-293T) (PSI 1-6); higher = more stable
Conditions: c terminus: a fixed tail appended
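Further: lentivirally expressed fusions sorted by FACS into six bins by GFP to DsRed ratio, PSI derived from sequencing read proportions per bin multiplied by bin number.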

Variant | protein stability index
FGGTGIPFGESNGNGVHACNVKYK | 2.1
FGGTGIPFGESNGNGVHNCNVKYK | 2.31
FGGTGIPFGESNGNGVHCCNVKYK | 2.06
FGGTGIPFGESNGNGVHPCNVKYK | 1.97
FGGTGIPFGESNGNGVHWCNVKYK | 1.75
FGGTGIPFGESNGNGVHHCNVKYK | 2.06
FGGTGIPFGESNGNGVHSCNVKYK | 2.45
FGGTGIPFGESNGNGVHYCNVKYK | 2.19
FGGTGIPFGESNGNGVHVANVKYK | 2.31
FGGTGIPFGESNGNGVHVQNVKYK | 2.29
FGGTGIPFGESNGNGVHVGNVKYK | 2.06
FGGTGIPFGESNGNGVHVFNVKYK | 2.62
FGGTGIPFGESNGNGVHVRNVKYK | 2.35
FGGTGIPFGESNGNGMHVCNVKYK | 1.89
FGGTGIPFGESNGNGFHVCNVKYK | 2.23
FGGTGIPFGESNGNGRHVCNVKYK | 2.97
FGGTGIPFGESNGNGQHVCNVKYK | 2.04
FGGTGIPFGESNGAGVHVCNVKYK | 1.82
FGGTGIPFGESNGCGVHVCNVKYK | 1.87
FGGTGIPFGESNGRGVHVCNVKYK | 2.04
FGGTGIPFGESNGYGVHVCNVKYK | 1.62
FGGTGIPFGESNGEGVHVCNVKYK | 2.47
FGGTGIPFGESNGKGVHVCNVKYK | 1.81
FGGTGIPFEESNGNGVHVCNVKYK | 3.16

Variant | protein stability index
FGGTGIPFSESNGNGVHVCNVKYK | 1.74
FGGTGIPFPESNGNGVHVCNVKYK | 2.44
FGGTGIPFNESNGNGVHVCNVKYK | 2.29
FGGTGIPFGESNGNGVHVCNVKYH | 1.57
FGGTGIPFGESNGNGVHVCNVKYL | 2.06
FGGTGIPFGESNGNGVHVCNVKYT | 3.32
FGGTGIPFGESNGNGVHVCNVKYY | 1.88
FGGTGIPFGESNGNGVHVCNVKYA | 1.23
FGGTGIPFGESNGNGVHVCEVKYK | 1.92
FGGTGIPFGESNGNGVHVCHVKYK | 1.48
FGGTGIPFGESNGNGVHVCRVKYK | 2.15
FGGTGIPFGESNGNGVHVCLVKYK | 1.36
FGGTGIPFGESNGNGVHVCVVKYK | 1.55
FGGTGIPFGESNGNGVHVCSVKYK | 1.65
FGGTGIPFGESNGNGVHVCPVKYK | 1.52
FGGTGIPFGEWNGNGVHVCNVKYK | 2.4
FGGTGIPFGEYNGNGVHVCNVKYK | 1.65
FGGTGIPFGEQNGNGVHVCNVKYK | 2.06
FGGTGIPFGETNGNGVHVCNVKYK | 1.96
FGGTGIPFGELNGNGVHVCNVKYK | 1.62
FGGTGIPFGERNGNGVHVCNVKYK | 1.97
FGGTGIPFGEMNGNGVHVCNVKYK | 2.25
FGGTGIPFGEPNGNGVHVCNVKYK | 2.3
FGGTGIPFGEENGNGVHVCNVKYK | 2.82

Variant | protein stability index
FGGTGIPFGEHNGNGVHVCNVKYK | 2.2
FGGTGIPFGEKNGNGVHVCNVKYK | 1.87
FGGTGIPFGEANGNGVHVCNVKYK | 1.97
FGGTGIPFGEVNGNGVHVCNVKYK | 2.35
WGGTGIPFGESNGNGVHVCNVKYK | 2.73
MGGTGIPFGESNGNGVHVCNVKYK | 4.04
CGGTGIPFGESNGNGVHVCNVKYK | 3.03
IGGTGIPFGESNGNGVHVCNVKYK | 3.5
VGGTGIPFGESNGNGVHVCNVKYK | 3.79
KGGTGIPFGESNGNGVHVCNVKYK | 3.71
YGGTGIPFGESNGNGVHVCNVKYK | 2.23
FGGTGIPRGESNGNGVHVCNVKYK | 3.37
FGGTGIPPGESNGNGVHVCNVKYK | 4.12
FGGTGIPCGESNGNGVHVCNVKYK | 3.02
FGGTGIPVGESNGNGVHVCNVKYK | 2.83
FGGTGIPDGESNGNGVHVCNVKYK | 4.16
FGGTGIPTGESNGNGVHVCNVKYK | 3.22
FGGTGIPYGESNGNGVHVCNVKYK | 2.16
FGGRGIPFGESNGNGVHVCNVKYK | 1.93
FGGQGIPFGESNGNGVHVCNVKYK | 1.6
FGGNGIPFGESNGNGVHVCNVKYK | 1.98
FGGPGIPFGESNGNGVHVCNVKYK | 2.91
FGGVGIPFGESNGNGVHVCNVKYK | 2.5
FGGWGIPFGESNGNGVHVCNVKYK | 2.52

Variant | protein stability index
FGGEGIPFGESNGNGVHVCNVKYK | 2.68
FEGTGIPFGESNGNGVHVCNVKYK | 3.9
FCGTGIPFGESNGNGVHVCNVKYK | 2.41
FAGTGIPFGESNGNGVHVCNVKYK | 2.2
FTGTGIPFGESNGNGVHVCNVKYK | 1.97
FKGTGIPFGESNGNGVHVCNVKYK | 3.55
FIGTGIPFGESNGNGVHVCNVKYK | 2.14
FGGTGIPFGESNGNGVHVCNVKPK | 2.41
FGGTGIPFGESNGNGVHVCNVKVK | 2.23
FGGTGIPFGESNGNGVHVCNVKEK | 2.47
FGGTGIPFGESNGNGVHVCNVKNK | 2.49
FGGTGIPFGRSNGNGVHVCNVKYK | 2.46
FGGTGIPFGFSNGNGVHVCNVKYK | 1.7
FGGTGIPFGQSNGNGVHVCNVKYK | 2.94
FGGTGIPFGVSNGNGVHVCNVKYK | 2.49
FGGTGIPFGSSNGNGVHVCNVKYK | 3.04
FGGTGIPFGMSNGNGVHVCNVKYK | 2.26
FGATGIPFGESNGNGVHVCNVKYK | 2.52
FGFTGIPFGESNGNGVHVCNVKYK | 2.66
FGHTGIPFGESNGNGVHVCNVKYK | 2.54
FGMTGIPFGESNGNGVHVCNVKYK | 2.29
FGDTGIPFGESNGNGVHVCNVKYK | 2.38
